From doi:10.1101/2021.11.29.470362 (bioRxiv, 2021) come the findings set out here.

Some results are limits rather than exact numbers.

Broadly, the Kd is the concentration at which binding is half-saturated. Low values mean higher affinity, high ones lower affinity.

The chains are these.
B1: IgG 15033 (antibody, V domains shown)
VH: EVQLVESGGGLVQPGGSLRLSCAASGFDLGGYSMHWVRQAPGKGLEWVAGIYASGGATAYADSVKGRFTISADTSKNTAYLQMNSLRAEDTAVYYCARSYYYGGFGMDYWGQGTLVTVSS
VL: DIQMTQSPSSLSASVGDRVTITCRASQSVSSAVAWYQQKPGKAPKLLIYSASDLYSGVPSRFSGSRSGTDFTLTISSLQPEDFATYYCQQSYRYPITFGQGTKVEIK
B2: peptide-IgG 33^HR1 (peptide R1 fused to the N-terminus of the HC of IgG 15033) (antibody, V domains shown)
VH: EVQLVESGGGLVQPGGSLRLSCAASGFDLGGYSMHWVRQAPGKGLEWVAGIYASGGATAYADSVKGRFTISADTSKNTAYLQMNSLRAEDTAVYYCARSYYYGGFGMDYWGQGTLVTVSS
VL: DIQMTQSPSSLSASVGDRVTITCRASQSVSSAVAWYQQKPGKAPKLLIYSASDLYSGVPSRFSGSRSGTDFTLTISSLQPEDFATYYCQQSYRYPITFGQGTKVEIK
B3: peptide-IgG 33^LN1 (peptide N1 fused to the N-terminus of the LC of IgG 15033) (antibody, V domains shown)
VH: EVQLVESGGGLVQPGGSLRLSCAASGFDLGGYSMHWVRQAPGKGLEWVAGIYASGGATAYADSVKGRFTISADTSKNTAYLQMNSLRAEDTAVYYCARSYYYGGFGMDYWGQGTLVTVSS
VL: DIQMTQSPSSLSASVGDRVTITCRASQSVSSAVAWYQQKPGKAPKLLIYSASDLYSGVPSRFSGSRSGTDFTLTISSLQPEDFATYYCQQSYRYPITFGQGTKVEIK

The assay addresses SARS-CoV-2 S-protein extracellular domain (ECD) (SARS-CoV-2, Wuhan-Hu-1 (ancestral), biotin, site-specific (BirA reaction) on the AviTag). As to the kind of experiment: BLI. For orientation: BLI is a label-free optical method that tracks binding on a fibre tip over time.
The molecule B1 had a Kd of 100 pM. In other words, the sub-nanomolar range.
B2 showed a Kd of less than 1 pM.
Then B3, with less than 1 pM.
